Source: the DeepSol protein solubility set

Assay: soluble on expression in E. coli; label from the status in PepcDB or PDB records

Sequence | soluble on expression in E. coli
MKKHIKNLFLLAAICLTVACKEQLYTGLTEKEANQMQALLLSNDVNVSKEMDKSGNMTLSVEKEDFVRAITILNNNGFPKKKFADIEVIFPPSQLVASPSQENAKINYLKEQDIERLLSKIPGVIDCSVSLNVNNNESQPSSAAVLVISSPEVNLAPSVIQIKNLVKNSVDDLKLENISVVIKSSSGQDG | not soluble
MKKHVMLVKPFSLEDEKDSENTPPNLIQRILSLFKNVRPGSDLTNFQLPPQMNLARSQLQCYGEIVYSFDGHDLLGECSRRDKPIERMKAMVTWYISTLRPLIFGLAPYNPVIGETHHVSNGHINVLAEQISHHPPVSALHATHEKENVDVLLCQYFTPKFRGAYVDVEVKGKRVVKLLNHKETYEMNQPKLLMTFLPAMGAHWAGKIVIKCPETGLGAELQLLSDSFLSRFTGNNKRAIKGKIFESSSRKQLYEISGHWDRTVTAKNTKTGQLEVIYKASENIAKLKTPIVENLQEVSESESAVVWGEVSEGIVTNNWEKAREAKRDVEEKQRESLRKRKASGQSWIPKHFSVARTGKDWDCVPLQPTVPRAPIVVPL | soluble
MKKIILIGSGGSGKSTLARQLGNKLNIKVHHLDALFWKPNWEGVPREEQITVQNNLIKDEKWIIDGNYGGTMGIRLNAADTIIFLDIHRTICVYRAFKRIVKYRNKTRPDMGAGCEERFDLQFFKWIWEYPNAKRPTILKELEQLPEEKKVIVLKSPNEVRKFLEHI | soluble
MKKIISLALALALSASAAELKMATTTSTDNTGLLDALKPLYEKESGNTLKWVAVGTGAALKMGEDCNADVLFVHSPKAEKEFMKKGFGVDRTPVMYNDFIIIADKSLASKFKGKNLKESLELIKNEKLTFISRGDKSGTDNKEKSLWKNLGGVPEKQSWYQQSGQGMLASIKIAEEKKGVILTDRGTYIKYEANEKGKPNLVIVNEGDDSLKNFYSVIATNPKHCKNVNYTEASKFIKWVTSDKTLNFIADFKLLNKPLFVIDAKTRKD | not soluble
MKKIRLAVIGTGMAWERLHYPAIKELEDKYEIVALCNRTRKDAEEFAKKINLSMDRVYDDYNEMLKRQDIDAVDILVPIESNYTVSEAVAKAGKDFICEKPLAANREEAKKYLELSKKYNVRIMIAENYRYSDEYNKIRDIVNSGKIGDVVYFIKNNISCFPCEMTKDTFAATEWRQHPKFYGGAFLDAAVHDIAAMRHIFGAVECVQAFGKPQAEDFNPYVSVNAHILFKNGVIGYYTYYPSGIETQKPAVGFRIFGTKGEIYLEDKTCGIINVSYHDGTSELVNFIPERGFYNELLNYYNAINGTEQISVTPEMEYGDVKMVFDILDSVSFREIIYVDEEEPKRRLEIADDEAKIHPFLQ | not soluble
MKKIVLYGGQFNPIHTAHMIVASEVFHELQPDEFYFLPSFMSPLKKHHDFIDVQHRLTMIQMIIDELGFGDICDDEIKRGGQSYTYDTIKAFKEQHKDSELYFVIGTDQYNQLEKWYQIEYLKEMVTFVVVNRDKNSQNVENAMIAIQIPRVDISSTMIRQRVSEGKSIQVLVPKSVENYIKGEGLYEH | soluble
MKKLIIATVLASISLSASAAETIRFAAEATYPPFEFIDANNKMQGFDIDLANALCKEMQADCTFTNQAFDSLIPSLKFKRFDAVISGMDITPERQKQVAFTQPYYDNSALFIAQKDKVADLAALKGKRVGMQNGSTHQKYLMEKHPEITAVPYDSYQNAILDLKNGRLDAVFGDTAVVNEWLKQNDQLAAVGDKVTDADYFGTGLGIAVRQSNTELQGKLDAALTKVKADGTYQTIYKKWFQQ | not soluble
MKKLVLIGGGYGNMRVLHRLLPNQLPDDVSITLIDRNPYHCLKTEYYALAAGTISDHHIRVSFPEHPRLDVQYGDITSIDIVQKQVLFQDREPISYDDAIIGLGCEDKYHNVPGAPEFTYSIQTIDQSRETYQKLNNLSANATVAIVGAGLSGVELASELRESRDDLNIILFDRGNLILSSFPERLSKYVQKWFEEHGVRIINRANITKVEEGVVYNHDDPISADAIVWTAGIQPNKVVRDLDVEKDAQGRIVLTPHHNLPGDEHLYVVGDCASLPHAPSAQLAEAQAEQIVQILQKRWNGEALPESMPQFKLKGVLGSTRK | soluble
MKKMLLATALALLITGCAQQTFTVQNKQTAVAPKETITHHFFVSGIGQKKTVDAAKICGGAENVVKTETQQTFVNGLLGFITLGIYTPLEARVYCSK | soluble
MKKPIILRKRYIPDEVIDISGDELVFRSEDLLITKWNPIRKRPDISGGISFTFLKEGYKASKFFGPSGEFKYWYCDIIKVLYDEDEDKYTLVDLLLDVKIMPDGRVEVLDADELAEALKNNIISKEEACMCLSILDKILKMAYSGKFPPEICLKDY | soluble
MKKPVHDMRQHIIDVARSLMTNKGYTAVGLAEVLITAGVPKGSFYYYFKSKEEFGQALLEEYFSEYLGRVDALMARPGTGAERLLAYFMYWSETQGTDLPEGKCLVVKLGAEVCDLSEDMRCVLEVGTAKIIQRISACVEMGVSDGSIHPEGDHQGFAESLYQLWLGASLLVKVNKSTESFDKALNMTKRLLK | not soluble
MKKRYKNPEKSGSCGNFIQAIKMTDKVQPLESLSKKPEEPKIVVNLRRIKRKIMVMSGKGGVGKSTVAANLAVGLALRGHRVGLLDCDIHGPTVPTIFGLESARPGVSEEGILPIEVLPNLSVMSIGFLLENKDSPIIWRGPAKMGAIKQFLEEVFWGALDFLIIDLPPGTGDEPLSVAQLIPNCDGSVLVTTPQDVALISVRKSITFSEKLNVPIIGLVDNMHGLICPHCGKPIEVFGSGGVEKASKDFNIPILARLPIEPGVAEMEDRGTVVQDQLKHGTEWQKNFDNVVDAVEKILEKELEHHHHHH | soluble
MKKSLIAFILIFMLVLSGCGMKDNDKQGSNDNGSSKSPYHRIVSLMPSNTEILYELGLGKYIVGVSTVDDYPKDVKKGKKQFDALNLNKEELLKAKPDLILAHESQKATANKVLSSLEKQGIKVVYVKDAQSIDETYNTFKQIGKLTHHDKQAEQLVEETKDNIDKVIDSIPAHHKKSKVFIEVSSKPEIYTAGKHTFFNDMLEKLEAQNVYSDINGWNPVTKESIIKKNPDILISTEAKTRSDYMDIIKKRGGFNKINAVKNTRIEVVNGDEVSRPGPRIDEGLKELRDAIYRK | not soluble
MKKTGWGILGAVAAFTGYAYWSTKHLTVTDYEILSDKIPAEWDGATFVQLSDLHSASFGLYNNPLLSIVNELAPDAVFLTGDMIDGDESPFVTMAVVRKLAKEFPVFYVSGNHEGRSAFYEDFKADMEKHHVAVLENERYFLRKDGAAIMVAGVKDPRFVRDDWAEKELPKQVWEEEALKEALDEATANLSPDYFTILLAHRPEFWPLYQAYPVDLVLSGHAHGGQFRLPLTEGLFAPGQGFMPKWTAGLHSAGGKSLIVSRGLGNVTKLPRLFNDPEIIRITLKAKGDARENLEHHHHHH | not soluble
MKKTTLAMSALALSLGLALSPLSATAAETSSSAMTAQQMPSLAPMLEKVMPSVVSINVEGSTTVNTPRMPRNFQQFFGDDSPFCQDGSPFQNSPFCQGGGNGGNGGQQQKFMALGSGVIIDAAKGYVVTNNHVVDNASVIKVQLSDGRKFDAKVVGKDPRSDIALIQIQNPKNLTAIKLADSDALRVGDYTVAIGNPFGLGETVTSGIVSALGRSGLNVENYENFIQTDAAINRGNSGGALVNLNGELIGINTAILAPDGGNIGIGFAIPSNMVKNLTSQMVEYGQVKRGELGIMGTELNSELAKAMKVDAQRGAFVSQVMPNSSAAKAGIKAGDVITSLNGKPISSFAALRAQVGTMPVGSKISLGLLREGKAITVNLELQQSSQSQVDSSTIFSGIEGAEMSNKGQDKGVVVSSVKANSPAAQIGLKKGDVIIGANQQPVKNIAELRKILDSKPSVLALNIQRGDSSIYLLMQ | not soluble
MKKVGILNSEISKIVADMGHMDTLAVVDLGFPIPQGVKKVDLVVDRGKPGLMEVIEILLRELKVERIILAKEMDEKSIQTKQELLKLIEKMNGPVEVVTVPHKEFKEMSKNVKGIIRTGADIPYSNVILVGGVIF | soluble
MKKVLFLLFLVFSFGVYSATFSDSDKKEILKQFSEFQKAVKKKDAAAVSRYISYPLKEGNTKEVIWKNSSELAKDLKDKETYTFYSINELKIDSNANKIINVEERLLEKNGEFGDEFLSVTGRFLDTDDVEGTIYTGIDKPHFVVAVSVYDDMFEGGTYYLFSFENKKLELVSIFRLP | not soluble
MKKVLLVNGPNLNRLGVREVNVYGKGTLATLEADMKQEAEAMGVELECFQSNHEGAIIDRIHEAEDIYEGIILNPGAFTHYSYAIRDAIASISIPVIEVHISNIHQRESFRHESVTAAVCAGQIVGFGFYGYKLALFALMEKLREA | not soluble
MKKYQQLAEQLREQIASGIWQPGDRLPSLRDQVALSGMSFMTVSHAYQLLESQGYIIARPQSGYYVAPQAIKMPKAPVIPVTRDEAVDINTYIFDMLQASRDPSVVPFASAFPDPRLFPLQQLNRSLAQVSKTATAMSVIENLPPGNAELRQAIARRYALQGITISPDEIVITAGALEALNLSLQAVTEPGDWVIVENPCFYGALQALERLRLKALSVATDVKEGIDLQALELALQEYPVKACWLMTNSQNPLGFTLTPQKKAQLVALLNQYNVTLIEDDVYSELYFGREKPLPAKAWDRHDGVLHCSSFSKCLVPGFRIGWVAAGKHARKIQRLQLMSTLSTSSPMQLALVDYLSTRRYDAHLRRLRRQLAERKQRAWQALLRYLPAEVKIHHNDSGYFLWLELPEPLDAGELSLAALTHHISIAPGKMFSTGENWSRFFRFNTAWQWGEREEQAVKQLGKLIQERL | not soluble
MKKYQQLFKQIQETIQNETYAVGDFLPSEHDLMEQYQVSRDTVRKALSLLQEEGLIKKIRGQGSQVVKEETVNFPVSNLTSYQELVKELGLRSKTNVVSLDKIIIDKKSSLITGFPEFRMVWKVVRQRVVDDLVSVLDTDYLDMELIPNLTRQIAEQSIYSYIENGLKLLIDYAQKEITIDHSSDRDKILMDIGKDPYVVSIKSKVYLQDGRQFQFTESRHKLEKFRFVDFAKRKK | not soluble
MKLARFLAKGRVHQGVYREGLLLDEAGEAHRPEDVTWLLPFTPGKILGVALNYADHAEELGLSRPEEPALFWKPNTSLLPHKGVVLYPKGARFVHYEVELAVVVGRPMKRVRAKDALDYVLGYTIANDLVARDYVTNTFRPPIRAKGRDTFLPLGPFLVVEEVEDPQDLWLRAYVNGELRQEGHTSRMLYSVAELLEFISEFMTLEPYDVLLTGTPKGISQVRPGDVMRLEIEGLGALENPIEEEP | soluble
MKLDAKSTIETGKAILGIELGSTRIKAVLIDQENKPIAQGSHTWENQLVNGLWTYSIDAIWSGLQDCYADLRSNVKKLYDTEIETLAAIGVSAMMHGYMPFNEKEEILVPFRTWRNTNTGRAAAELSELFVYNIPLRWSISHLYQAILDNEAHVKDIKFLTTLAGYVHWQITGEKVLGIGDASGMLPIDPTTNNYSAEMVAKFNNLIASKEYSWKLEDILPKVLSAGENAGVLTPEGCKKLDASGHLKAGIPVCPPEGDAGTGMVATNAVKQRTGNVSAGTSSFSMIVLEKELSKPYEMIDMVTTPDGSLVAMVHCNNCTSDLNAWVNLFKEYQELLGIPVDMDELYGKLYNIALTGDTDCGGLLSYNYISGEPVTGLAEGRPLFVRSANDKFNLANFMRAHLYASVGVLKIGNDILFNEEKIKVDRITGHGGLFRTKGVGQRVLAAAINSPISVMETAGEGGAWGIALLGSYLVNNKKGQSLADFLDESVFVSDAGVEVSPTPEDVAGFNTYIESYKAGLPIEEAAVKFKLEHHHHHH | soluble
MKLESPLGSDLARLVRIWRALIDHRLKPLELTQTHWVTLHNIHQLPPDQSQIQLAKAIGIEQPSLVRTLDQLEEKGLISRQTCASDRRAKRIKLTEKAEPLISEMEAVINKTRAEILHGISAEELEQLITLIAKLEHNIIELQAKG | not soluble
